The source of these data is US9868960B2, “Placental like alkaline phosphatase (PLAP) promoter mediated cell targeting” (priority 2013, dated 2018).

Entries after “also recorded” stand apart in the source; their conditions may differ.

The subject of data set [1] is HPV-16 enhancer in SiHa cells. As to the kind of experiment: Chip assay of H3K9me2 and H3K27me3 at the targeted enhancer. The format is cell-based. Conditions: harvested after 5 days. As to the method: FIG. 13: Elucidating the mechanism of transcriptional gene silencing: (A) SiHa cells untreated or treated with TSA were transfected with NFκB+PLAP enhancer-promoter chimera expressing test & scrambled shRNA and harvested after 5 days. Chip was performed with antibodies against H3K9me2 and H3K27me3; antibodies against RNA polymerase and mouse IgG were respectively used as positive and negative controls for pull down. Input and immuno-precipitated DNA were measured by PCR with requisite primers and the enrichment at enhancer region was further quantified by qPCR.
Using chip assay, we assessed the level of histone H3K9 dimethylation (H3K9me2) and H3K27 trimethylation (H3K27me3), two repressive epigenetic marks shown to increase as a result of TGS.

The subject of data set [2] is PLAP negative cell lines HepG2 (Hepatoma) & CHO. As to the kind of experiment: Dual luciferase reporter assay of promoter/enhancer-promoter constructs in PLAP negative cell lines. The format is cell-based. As to conditions: PLAP negative/control cell lines HepG2 & CHO, 48 hours post transfection. As to the method:
(§1) All transfections were performed using Lipofectamine™ 2000 transfection reagent according to manufacturer's instruction (Invitrogen). Briefly, (1×10^6/well) cells were cultured in 6-well plates overnight. The luciferase reporter vectors (PLAP-luc, NFκB+PLAP−luc & pG13 Basic; 1 μg well^−1) were co-transfected in 20:1 ratio with Renilla luciferase expression vector (pRL-TK), an internal control for normalisation of the transcriptional activity of the reporter vectors. Forty-eight hours post transfection, the cells were lysed and luciferase activities were assayed using Dual Luciferase Assay reagents (Promega) according to manufacturer's protocol. All transfections were performed in triplicate and all experiments were repeated at least twice.
(§2) The region of PLAP promoter spanning from −170 to +24 containing invariant TATA boxes (nucleotides −31 to −25) & Sp1 binding sites (nucleotides −84 to −76) cloned in promoter less luciferase expression vector PGL3 basic was transfected in battery of PLAP positive cell cervical cell lines (HeLa, SiHa and CaSki) and appropriate PLAP negative cell lines HepG2 (Hepatoma) & CHO. Promoter activity was assayed in these in vitro model systems by dual luciferase assay.
(§3) To develop an optimal enhancer-promoter system for improving the transcriptional activity of PLAP promoter a fusion construct comprising of PLAP promoter & tetramer of NFKB binding sites cloned in PGL3 basic was evaluated by dual luciferase assay in the above mentioned cell lines. Furthermore, we compared the transcriptional activity of PLAP promoter/enhancer systems with strong SV40 virus promoter (PGL3 C).

The test system of data set [3] is PLAP positive cell lines (HeLa, SiHa, CaSki, Caco-2). As to the kind of experiment: Dual luciferase reporter assay of promoter/enhancer-promoter constructs in PLAP positive cell lines. The format is cell-based, human. Conditions: for transcriptional activity (relative luciferase activity over pGL3-Basic): PLAP positive cell lines, 48 hours post transfection, normalised by Renilla; for tissue specificity of luciferase expression: PLAP positive versus PLAP negative cell lines; for tissue specificity of luciferase expression / trend of construct activity (strength): FIG. 6; for trend of construct activity (strength): luciferase reporter constructs. As to the method:
as §1, §2, §3

The mark [4] stands for this setting: listed as NFκB+PLAP promoter enhancer systems.

With `CC(/C=C/C(=O)NO)=C\[C@@H](C)C(=O)c1ccc(N(C)C)cc1` [trichostatin], the “levels of H3K9me2 and H3K27me3 at the targeted enhancer” value in data set [1] is reported as “reduced this enrichment”.

B1: PLAP promoter: human PLAP promoter region −170 to +24 cloned in promoter less luciferase expression vector pGL3 Basic (nucleic acid, listed as Homo sapiens)
DNA: AAGCTGCCTTTCTCAGGACCCCAGCCCCAGCCCAGCCCAGCCACACCCTGCGACTCTCTTCAGCCAGTGTGGCTTCAGGTCAAGAGGCTGGGCGGGGTCAAGGTGGTAACAAGGGGAGGGGCCAGGACACAGTTTTCCCTGATTTAAACCCAGGCAGCCTGGAGTGCAGCTCATACTCCATACCTGGGATTTCCGC
modifications: in pGL3 Basic luciferase vector; DNASequence (1)..(196) Unique PLAP promoter Sequence
notes: human PLAP promoter region −170 to +24 cloned in promoter less luciferase expression vector pGL3 Basic
As to B1, the “transcriptional activity (relative luciferase activity over pGL3-Basic)” value in data set [2] was “little or no activity in the control cell lines; also recorded: not in PLAP negative cell line”. Moreover, in data set [3], the “transcriptional activity (relative luciferase activity over pGL3-Basic)” value is listed as “of optimum level only in carcinoma cell lines expressing PLAP; also recorded: selective transcriptional activity in all the PLAP positive cell lines”, the “tissue specificity of luciferase expression” value is on record as “tissue selective expression” and the “trend of construct activity (strength)” value is listed as “NFκB−PLAP Pr>SV40 Pr>PLAP Pr”.

B2: NFKB−PLAP enhancer-promoter system: tetramer of NFκB DNA binding sites (GGGAATTTCC) upstream of PLAP promoter −170 to +24 in pGL3 Basic luciferase vector (nucleic acid)
DNA: GGGAATTTCCGGGAATTTCCGGGAATTTCCGGGAATTTCCAAGCTGCCTTTCTCAGGACCCCAGCCCCAGCCCAGCCCAGCCACACCCTGCGACTCTCTTCAGCCAGTGTGGCTTCAGGTCAAGAGGCTGGGCGGGGTCAAGGTGGTAACAAGGGGAGGGGCCAGGACACAGTTTTCCCTGATTTAAACCCAGGCAGCCTGGAGTGCAGCTCATACTCCATACCTGGGATTTCCGC
modifications: in pGL3 Basic luciferase vector; Enhancer (NFKB)-Promoter (PLAP) Sequence.
Consider B2, for which the “transcriptional activity (relative luciferase activity over pGL3-Basic)” value is “not in PLAP negative cell line” in data set [2], “little or no activity in the control cell lines” in data set [2] (setting [4]), “selective transcriptional activity in all the PLAP positive cell lines; also recorded: highly comparable to that of strong SV40 virus promoter” in data set [3] and “of optimum level only in carcinoma cell lines expressing PLAP” in data set [3] (setting [4]). In addition, the “tissue specificity of luciferase expression” value in data set [3] is on record as “tissue selective expression”. The “trend of construct activity (strength)” value in data set [3] was “NFκB−PLAP Pr>SV40 Pr>PLAP Pr”.
